Data taken from US20160326230A1 (SHANGHAI HENGRUI PHARMACEUTICAL, published 2016).
No end group written: not given here.

Target: the receptor on THP-1 cells
Assay: cell-based or functional assay

B1: recombinant human relaxin 800828 (WT, wild-type) (ligand)
chain 1: DSWMEEVIKLCGRELVRAQIAICGMSTWS
chain 2: QLYSALANKCCHVGCTKRSLARFC
modifications: not fully specified; ends and bridges not checked
**Q.** For B1, which “EC50 (ng/ml) of cAMP induced in THP-1 cells (cAMP ELISA)” value is on record?
**A.** 3.03 ng/mL
